Experimental data taken from PMC11825483.

Assay: hepatic Ceacam1 mRNA and protein levels
Conditions: glycan changed form; control: Slc35c1 flox/flox mice

B1: CEACAM1 (Ceacam1): Slc35c1 cKO (protein)
parent chain: MELASAHLHKGQVPWGGLLLTASLLASWSPATTAEVTIEAVPPQVAEDNNVLLLVHNLPLALGAFAWYKGNTTAIDKEIARFVPNSNMNFTGQAYSGREIIYSNGSLLFQMITMKDMGVYTLDMTDENYRRTQATVRFHVHQPVTQPFLQVTNTTVKELDSVTLTCLSNDIGANIQWLFNSQSLQLTERMTLSQNNSILRIDPIKREDAGEYQCEISNPVSVRRSNSIKLDIIFDPTQGGLSDGAIAGIVIGVVAGVALIAGLAYFLYSRKSGGGSDQRDLTEHKPSTSNHNLAPSDNSPNKVDDVAYTVLNFNSQQPNRPTSAPSSPRATETVYSEVKKK
  expression_or_secretion: no change
